Square brackets hold non-standard residues; d marks the D form. Ends that are not written are not given here. * marks the point of attachment. hSer(lactone) = O=C1OCC[C@@H]1N*
Legend:
[1] = target: T1, FN(C)-STAV11; experiment: flow cytometry of mated yeast: surface C-FN3-STAV11 by anti-V5/FITC, captured secreted N-FN3 by anti-FLAG/PE
T1 construct: also called C-FN3-STAV11
T1 chain: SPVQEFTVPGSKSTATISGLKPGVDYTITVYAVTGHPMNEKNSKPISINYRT

[2] = target: T2, Yeast ubiquitin (Sigma) (yeast, UniProt P0CG63 1-76); experiment: clone isolated by phage display selection on ubiquitin; listed as ubiquitin-binding monobody
T2 construct: mature; also called soluble ubiquitin; free ubiquitin

[3] = target: the molecule itself; experiment: self-association seen by NMR line broadening
[4] = target: T3, C-terminal fragment of CD92 (FNfn10 cleaved in the CD loop) (human, UniProt P02751 1578-1631); experiment: size exclusion chromatography of the mixed fragments of CD92
T3 construct: Start at residue 43 is inferred from the N-terminal fragment ending at Asn42
Description: Size exclusion chromatography was performed on the fragments of CD92 using a Sephadex75 gel filtration column.

[5] = target: T3, C-terminal fragment of CD92 (FNfn10 …); experiment: Trp fluorescence titrations, extrapolated to no urea, 750 mM glycerol
Description: (§1) Proteins were dissolved to a final concentration of 500 nM in 20 mM sodium phosphate buffer at pH 6.0 containing 100 mM sodium chloride, 750 mM glycerol unless otherwise noted and various urea concentration between 1 M and 2.5 M. Urea concentration was determined using an Abbe refractometer (Spectronic Instruments) as described (Pace and Sholtz 1997). To obtain ([…] on the reconstitution at conditions without the addition of urea and glycerol, a series of C-terminal fragment-titration experiments with varying urea or glycerol concentrations, respectively, were performed. The dissociation constants in the absence of urea or glycerol were estimated by extrapolation based on experimental data
(§2) A dissociation constant can be determined from a titration experiment where the concentration of the fluorophore is held constant and its corresponding binding partner is added. […] When measuring the dissociation constant, the concentration of the fluorophore has to be lower than or near the dissociation constant. To obtain a more accurate value, a series of titration experiments were performed at higher urea concentration, followed by subsequent extrapolation to compensate for the addition of urea.

[6] = target: T3, C-terminal fragment of CD92 (FNfn10 …); experiment: Trp fluorescence titrations, extrapolated to plain buffer in the reverse order
Description: as §2
(§3) To gain an extrapolation that excluded both glycerol and urea, a stepwise approach was taken that assumed that the two co-solutes had independent effects on the dissociation constant.

[7] = target: T3, C-terminal fragment of CD92 (FNfn10 …); experiment: Trp fluorescence titrations, extrapolated to plain buffer (no urea, no glycerol)
Description: as §2, §3

[8] = target: T3, C-terminal fragment of CD92 (FNfn10 …); experiment: Trp fluorescence titration, 750 mM glycerol, 1 M urea, about 500 nM N-terminal fragment
Description: as §1, §2

T3 sequence (P02751 other isoform, or with tags, fused parts or gaps): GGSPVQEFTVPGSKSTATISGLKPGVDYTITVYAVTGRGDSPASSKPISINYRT
T2 sequence (P0CG63 1-76 limits assumed): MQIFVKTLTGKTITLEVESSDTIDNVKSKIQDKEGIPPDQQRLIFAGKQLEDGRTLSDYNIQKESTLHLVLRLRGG

B1: N-FN3 (residues 1-42) followed by the FLAG tag, secreted from yeast (other)
chain: VSDVPRDLEVVAATPTSLLISWDAPAVTVRYYRITYGETGGN
notes: also called wild-type N-terminal fragment; pGalsecFN(N)FLAG; not shown: FLAG tag
**Q.** Does B1 bind [1]?
**A.** binds

B2: ubiquitin-binding monobody 212 (Fn3 with BC loop CWRRA and FG loop RWVGLAW), phage clone (designed binder, not shown: large carriers; small tags and cut ends)
chain: VSDVPRDLEVVAATPTSLLISWDAPCWRRAYYRITYGETGGNSPVQEFTVPGSKSTATISGLKPGVDYTITVYAVTGRWVGLAWSKPISINYRT
notes: also called clone 212
**Q.** Does B2 bind [2]?
**A.** binds

B3: ubiquitin-binding monobody 215 (Fn3 with BC loop CNWRR and FG loop RAYRYRW), phage clone (designed binder, not shown: large carriers; small tags and cut ends)
chain: VSDVPRDLEVVAATPTSLLISWDAPCNWRRYYRITYGETGGNSPVQEFTVPGSKSTATISGLKPGVDYTITVYAVTGRAYRYRWSKPISINYRT
notes: also called clone 215
**Q.** Does B3 bind [2]?
**A.** binds

B4: ubiquitin-binding monobody 213 (Fn3 with BC loop CKHRR and FG loop FADLWWR), phage clone (designed binder, not shown: large carriers; small tags and cut ends)
chain: VSDVPRDLEVVAATPTSLLISWDAPCKHRRYYRITYGETGGNSPVQEFTVPGSKSTATISGLKPGVDYTITVYAVTGFADLWWRSKPISINYRT
notes: also called clone 213
**Q.** Does B4 bind [2]?
**A.** binds

B5: ubiquitin-binding monobody 214 (Fn3 with BC loop CRRGR and FG loop RGFMWLS), phage clone (designed binder, not shown: large carriers; small tags and cut ends)
chain: VSDVPRDLEVVAATPTSLLISWDAPCRRGRYYRITYGETGGNSPVQEFTVPGSKSTATISGLKPGVDYTITVYAVTGRGFMWLSSKPISINYRT
notes: also called clone 214
**Q.** Does B5 bind [2]?
**A.** binds

**Q.** Does VSDVPRKLQVVAATPTSLLISWDAPAVTVRYYRITYGETGGNGG[hSer(lactone)] (other, not fully specified, also called mutant CD-loop fragment) bind [3]?
**A.** binds

**Q.** What about the Kd [4] of the same binder?
**A.** < 1000 nM

**Q.** And the Kd [5]?
**A.** ~1.5 nM

**Q.** And the Kd [6]?
**A.** 3.9 nM

**Q.** And the Kd [7]?
**A.** 3.6 nM

**Q.** And the Kd [8]?
**A.** ~10 nM
